In article PMC6949303:

B1: Ligelizumab IgG (antibody, V domains shown)
VH: QVQLVQSGAEVMKPGSSVKVSCKASGYTFSWYWLEWVRQAPGHGLEWMGEIDPGTFTTNYNEKFKARVTFTADTSTSTAYMELSSLRSEDTAVYYCARFSHFSGSNYDYFDYWGQGTLVTVSS
VL: EIVMTQSPATLSVSPGERATLSCRASQSIGTNIHWYQQKPGQAPRLLIYYASESISGIPARFSGSGSGTEFTLTISSLQSEDFAVYYCQQSWSWPTTFGGGTKVEIK
B2: Ligelizumab Fab (Fab, V domains shown)
VH: B1 VH
VL: B1 VL
B3: Ligelizumab F(ab′)2 (protein)
VH: B1 VH
VL: B1 VL

Legend:
[1] = molecular target: Biotinylated JW8-IgE (human); assay: ELISA; FcεRIα immobilised at 30 nM; biotinylated JW8-IgE titrated (60–0.001 nM) or 0.78 nM pre-incubated 30 min with anti-IgE antibodies (0.0078–600 nM); streptavidin-HRP
[2] = molecular target: Human monoclonal Sus11-IgE (human); assay: SPR; Biacore X100, CM5 chip, HBS-EP+, 10 μl/min; anti-IgE Le27 immobilised (3000 RU), 30 nM Sus11-IgE captured (~100 RU); 1.56–25 nM antibodies/fragments injected 120 s, dissociation 240 s; 1:1 langmuir fit

Row | Binder | fold higher potency than omalizumab in inhibiting IgE binding to FcεRIα [1] | Kd [2] | koff [2] | kon [2]
1 | B1 | 20 fold | 17.8 pM | 3.3e-05 s⁻¹ | 1.8e+06 M⁻¹ s⁻¹
2 | B2 |  | 35 pM | 0.00032 s⁻¹ | 9.2e+06 M⁻¹ s⁻¹
3 | B3 |  | 12.1 pM | 5.1e-05 s⁻¹ | 4.2e+06 M⁻¹ s⁻¹
